The target of experiment [1] is T1, hPCSK9v5His (human, UniProt Q8NBP7 31-692). The experiment in a line: cell-based or functional assay.
Experiment [2] concerns the target T2, mPCSK9v5His (mouse, UniProt Q80W65 35-694). The experiment in a line: cell-based or functional assay.
Experiment [3] addresses T1, hPCSK9v5His. The experiment in a line: SPR Biacore 2000; Fab captured on anti-Fab IgG, PCSK9 in flow. The method, then:
(§1) Anti-Fab IgG (Human specific) (Sigma, catalog #15260) was covalently coupled to surfaces 1 and 2 of a Sensor Chip CM5 via primary amine groups, using the immobilization wizard with the “Aim for immobilization” option using Biacore™ Amine Coupling Kit (cat#BR-1000-50. A target immobilization of 5000 RU was specified. The wizard uses a 7 minute activation with a 1:1 mixture of 100 mM NHS (N-Hydroxysuccinimide) and 400 mM EDC (1-ethyl-3-(3-dimethylaminopropyl)-carbodiimide), injects the ligand in several pulses to achieve the desired level, then deactivates the remaining surface with a 7 minute pulse of ethanolamine.
(§2) Anti-PCSK9 Fabs were captured on capture surface 2, and surface 1 was used as a reference for kinetic studies of Fab:PCSK9 interactions. […] 5-10 concentrations of hPCSK9v5H is or mPCSK9v5His antigens were flowed across the surface at […] for 3-4 minutes. 15-60 minutes dissociation time was allowed before regeneration of the Anti-Fab surface with a 30 second pulse of 10 mM glycine pH 2.0.
(§3) BiaEvaluation Software was used to evaluate the sensograms from the multiple concentration of PCSK9 antigen analyzed with each Fab, to estimate the kinetics constants of the Fab:PCSK9 interactions.
(In SPR one partner is held on a chip, and binding of the other changes the refractive index at the surface.)

For experiment [4], the target named is T2, mPCSK9v5His. The description is as above. The method, then: as §1, §2, §3
Experiment [5] concerns the target T3, AlexaFluor647-labeled PCSK9.
T3 construct: Used in the TR-FRET assay and in the internalization assay; also called AF647-PCSK9; AF-labeled PCSK9
Kind of experiment: TR-FRET competition assay: 1B20 titrated against 10 nM AF647-PCSK9; the blocked ligand is Eu-sLDLR (about 4 nM); the Ratio falls from about 6200 to about 1000 (right curve, squares). The method, then:
(§4) AlexaFluor647-labeled PCSK9 (final concentration 10 nM) was combined with varying amounts of 1B20 and to this was added Eu(8044)-labeled LDLR ectodomain to a final concentration of ˜4 nM (sufficient to give ˜20,000 counts at F1620 nM on the Rubystar) in […] (pH 7.4), 150 mM NaCl, 0.1 mM CaCl₂, 0.05% (w/v) BSA in a total volume of 50 μL using 96 well black Dynatech U bottom plates. After at least 90 minutes of equilibration, samples were read in a Rubystar reader (BMG Corp.) using 20 flashes per well, a 50 usec integration delay, and a 200 usec total integration time. Data were expressed as the ratio of (F1665/F1620×10000) and an IC₅₀ for 1B20 was determined from the inflection point of a sigmoidal dose-response curve using a standard four parameter fit.
For orientation: Time-resolved FRET reads energy transfer from a long-lived donor to a nearby acceptor.

Experiment [6] addresses T1, hPCSK9v5His. The experiment in a line: SPR Biacore 2000; IgG captured on goat anti-human IgG, PCSK9 in flow. The protocol:
(§5) A goat Anti-Human IgG (Caltag, catalog #H10700) was covalently coupled to surfaces 1 and 2 of a Sensor Chip CM5 via primary amine groups, using the immobilization wizard with the “Aim for immobilization” option using Biacore™ Amine Coupling Kit (cat#BR-1000-50. A target immobilization of 5000 RU was specified. The wizard uses a 7 minute activation with a 1:1 mixture of 100 mM NHS (N-Hydroxysuccinimide) and 400 mM EDC (1-ethyl-3-(3-dimethylaminopropyl)-carbodiimide), injects the ligand in several pulses to achieve the desired level, then deactivates the remaining surface with a 7 minute pulse of ethanolamine.
(§6) Anti-PCSK9 IgGs were captured on capture surface 2, and surface 1 was used as a reference for kinetic studies of IgG:PCSK9 interactions. IgG was captured by flowing a 10 nM solution at 10 μl/min for 1-1.5 minutes to reach a target RL for an R max of 100-150 RU for the reaction. 5-10 concentrations of hPCSK9v5His or mPCSK9v5His antigens were flowed across the surface at 30 or 60 μl/minute for 4 minutes. 15-60 minutes dissociation time was allowed before regeneration of the Anti-IgG surface with a 60 second pulse of 10 mM Glycine pH 1.7.
(§7) BiaEvaluation Software was used to evaluate the sensograms from the multiple concentration of PCSK9 antigen analyzed with each IgG, to estimate the kinetics constants of the IgG:PCSK9 interactions.

In experiment [7] the target is T2, mPCSK9v5His. The experiment is described as above. The method, then:
as §5, §6, §7

Experiment [8] addresses T3, AlexaFluor647-labeled PCSK9. The experiment in a line: TR-FRET competition assay: 1B20 titrated against 10 nM AF647-PCSK9; the blocked ligand is Eu-sLDLR (about 4 nM); the Ratio falls from about 6200 to about 1000 (left curve, circles). The protocol:
as §4

Experiment [9] concerns the target T1, hPCSK9v5His. The experiment in a line: Bio-Rad ProteOn SPR, Fab against human PCSK9-V5-His. The protocol:
Additional site-directed mutant variants of 1B20 were generated (mutations in the heavy chain) and are disclosed herein as SEQ ID NOs: 102-107. Kds of site-directed mutant variants of 1B20 Fabs were determined using a Bio-Rad ProteOn; with affinity being measured against human PCSK9-V5-His. The methodologies for measuring Fab affinities are essentially the same as previously described for Biacore®.

Where a chain is given by its changes, count along the chain named.

This note sets out measurements from US20130071379A1 (Merck Sharp & Dohme, published 2013).

What is called Kd is the constant that tells how readily two partners part at equilibrium. A high value points to weaker binding. The koff is the rate constant with which the complex falls apart. Low values mean a long-lived complex, high ones a short-lived complex. In general, kon refers to a measure of how fast the partners come together. A word on the IC50: it is the concentration that inhibits the measured activity by half.

T2 sequence (Q80W65 35-694 limits assumed): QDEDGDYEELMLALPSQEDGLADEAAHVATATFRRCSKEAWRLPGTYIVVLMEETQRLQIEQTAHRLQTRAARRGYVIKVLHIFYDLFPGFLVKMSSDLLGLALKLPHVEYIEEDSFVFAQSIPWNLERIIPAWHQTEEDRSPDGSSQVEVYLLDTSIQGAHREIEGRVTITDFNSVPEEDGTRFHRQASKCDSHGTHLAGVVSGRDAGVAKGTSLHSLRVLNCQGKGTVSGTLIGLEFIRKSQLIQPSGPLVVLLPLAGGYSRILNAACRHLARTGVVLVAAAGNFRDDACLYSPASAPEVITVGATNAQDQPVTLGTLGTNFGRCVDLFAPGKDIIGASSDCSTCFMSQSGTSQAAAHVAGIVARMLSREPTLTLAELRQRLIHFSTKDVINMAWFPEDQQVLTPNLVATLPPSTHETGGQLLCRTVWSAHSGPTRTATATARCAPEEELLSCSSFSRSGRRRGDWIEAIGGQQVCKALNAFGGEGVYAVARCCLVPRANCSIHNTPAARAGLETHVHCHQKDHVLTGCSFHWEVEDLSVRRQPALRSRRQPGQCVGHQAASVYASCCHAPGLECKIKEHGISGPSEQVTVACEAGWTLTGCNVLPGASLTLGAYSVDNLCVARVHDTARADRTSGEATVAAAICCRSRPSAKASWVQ
T1 sequence (Q8NBP7 31-692 limits assumed): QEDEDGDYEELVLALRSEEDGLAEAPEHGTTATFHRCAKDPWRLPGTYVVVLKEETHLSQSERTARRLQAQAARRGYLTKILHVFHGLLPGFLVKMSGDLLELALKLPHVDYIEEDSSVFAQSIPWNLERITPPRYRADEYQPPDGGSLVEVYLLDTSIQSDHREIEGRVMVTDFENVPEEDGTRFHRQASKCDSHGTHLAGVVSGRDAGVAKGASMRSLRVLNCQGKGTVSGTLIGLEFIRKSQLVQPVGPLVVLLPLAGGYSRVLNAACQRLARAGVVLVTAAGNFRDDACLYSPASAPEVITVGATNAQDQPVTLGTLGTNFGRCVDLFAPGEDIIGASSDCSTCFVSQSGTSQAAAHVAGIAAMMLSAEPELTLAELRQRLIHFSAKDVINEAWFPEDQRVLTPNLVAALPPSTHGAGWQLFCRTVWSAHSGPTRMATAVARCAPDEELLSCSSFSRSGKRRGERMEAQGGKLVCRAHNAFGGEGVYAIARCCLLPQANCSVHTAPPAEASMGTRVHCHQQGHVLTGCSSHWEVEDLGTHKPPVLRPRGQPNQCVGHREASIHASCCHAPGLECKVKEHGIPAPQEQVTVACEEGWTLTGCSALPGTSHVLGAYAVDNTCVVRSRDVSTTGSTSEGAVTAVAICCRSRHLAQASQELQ
T3 sequence (Q8NBP7 153-692, chain 1 of 2): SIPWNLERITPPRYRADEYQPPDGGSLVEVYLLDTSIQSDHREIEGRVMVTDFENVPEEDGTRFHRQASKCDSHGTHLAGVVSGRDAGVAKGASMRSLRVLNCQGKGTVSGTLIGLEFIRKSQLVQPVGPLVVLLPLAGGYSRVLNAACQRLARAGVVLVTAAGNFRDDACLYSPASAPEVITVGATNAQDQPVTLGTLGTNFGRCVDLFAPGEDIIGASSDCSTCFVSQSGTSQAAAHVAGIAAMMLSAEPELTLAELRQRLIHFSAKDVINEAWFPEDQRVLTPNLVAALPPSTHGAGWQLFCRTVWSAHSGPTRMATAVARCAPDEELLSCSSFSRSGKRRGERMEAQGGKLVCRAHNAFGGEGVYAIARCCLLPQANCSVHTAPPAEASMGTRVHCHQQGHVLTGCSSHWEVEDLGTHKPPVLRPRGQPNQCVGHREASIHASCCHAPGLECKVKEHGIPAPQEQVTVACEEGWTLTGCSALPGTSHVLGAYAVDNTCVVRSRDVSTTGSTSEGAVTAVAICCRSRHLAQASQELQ
T3 sequence (Q8NBP7 31-152, chain 2 of 2): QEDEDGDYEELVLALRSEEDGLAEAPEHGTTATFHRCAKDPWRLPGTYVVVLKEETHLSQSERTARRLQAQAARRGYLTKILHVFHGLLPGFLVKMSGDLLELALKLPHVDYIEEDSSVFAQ

B1: 1B20 Fab (Fab, V domains shown)
VH: QVQLVQSGAEVKKPGESLKISCKGSGYSFTNYWISWVRQMPGKGLEWMGIIYPGDSYTNYSPSFQGQVTISADKSISTAYLQWSSLKASDTAMYYCARDYWYKPLFDIWGQGTLVTVSS
VL: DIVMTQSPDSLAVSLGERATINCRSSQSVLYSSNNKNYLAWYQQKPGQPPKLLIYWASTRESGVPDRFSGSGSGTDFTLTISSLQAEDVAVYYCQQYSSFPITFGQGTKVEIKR
notes: His-tagged Fab expressed in E. coli and purified by IMAC; also called 6CX1B20
In the case of B1, the “IC50, inhibition of PCSK9-dependent loss of cellular LDL-uptake (Exopolar assay, HEK cells)” value in experiment [1] was found to be 145 nM. The “IC50, inhibition of PCSK9-dependent loss of cellular LDL-uptake (Exopolar assay, HEK cells)” value in [2] is 152 nM. In [3], this molecule displayed a Ka of 1.5e+09 M⁻¹, a Kd of 0.74 nM, a koff of 4.8e-05 s⁻¹ and a kon of 66000 M⁻¹ s⁻¹. Further, in experiment [4], the Ka was 2e+09 M⁻¹, the Kd worked out at 0.51 nM, the koff worked out at 7.2e-05 s⁻¹ and the kon was 141000 M⁻¹ s⁻¹. The IC50 in experiment [5] came to 25.8 nM.

B2: 1B20 IgG (antibody, V domains shown)
VH: B1 VH
VL: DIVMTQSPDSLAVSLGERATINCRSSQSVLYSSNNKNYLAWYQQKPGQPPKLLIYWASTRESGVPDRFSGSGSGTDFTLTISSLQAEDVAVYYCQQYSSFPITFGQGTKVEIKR
notes: Full-length IgG2m4 with kappa light chain, expressed in HEK293 cells, purified on Protein A; also called 1B20 whole IgG; 1B20 IgG2m4
As for B2, the “IC50, inhibition of PCSK9-dependent loss of cellular LDL-uptake (Exopolar assay, HEK cells)” value in experiment [1] came out at 22 nM. In addition, the “IC50, inhibition of PCSK9-dependent loss of cellular LDL-uptake (Exopolar assay, HEK cells)” value in experiment [2] was found to be 13 nM. In addition, in experiment [6], the Ka came to 1.4e+09 M⁻¹, binding was characterised by a dissociation constant (Kd) of 0.89 nM, the koff amounted to 4.3e-05 s⁻¹ and the kon was 53000 M⁻¹ s⁻¹. In [7], this molecule registered a Ka of 7.4e+08 M⁻¹, a Kd of 1.4 nM, a koff of 0.00012 s⁻¹ and a kon of 89000 M⁻¹ s⁻¹. The concentration for half-maximal inhibition (IC50) in experiment [8] was found to be 2.8 nM.

B3: 1B20 Fab variant N59K (Fab, V domains shown)
VH: B1 VH with N59K
VL: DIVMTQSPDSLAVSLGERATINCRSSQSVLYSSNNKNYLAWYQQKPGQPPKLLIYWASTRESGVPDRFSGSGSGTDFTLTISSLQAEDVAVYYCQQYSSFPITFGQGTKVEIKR
notes: Site-directed variant of the 1B20 Fab, 'mutations in the heavy chain'
B3 returned a Kd in experiment [9] of 0.013 nM. In other words, the picomolar range.

B4: 1B20 Fab variant N59R (Fab, V domains shown)
VH: B1 VH with N59R
VL: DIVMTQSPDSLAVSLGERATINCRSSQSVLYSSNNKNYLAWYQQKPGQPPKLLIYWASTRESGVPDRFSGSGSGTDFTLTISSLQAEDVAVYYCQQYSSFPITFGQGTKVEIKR
notes: as for B3
In experiment [9], B4 displayed a Kd of 0.049 nM.

B5: 1B20 Fab variant N59Q (Fab, V domains shown)
VH: B1 VH with N59Q
VL: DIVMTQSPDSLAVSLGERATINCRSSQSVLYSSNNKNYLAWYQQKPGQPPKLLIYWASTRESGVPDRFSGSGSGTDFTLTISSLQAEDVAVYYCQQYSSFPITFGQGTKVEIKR
notes: as for B3
B5: in experiment [9], the equilibrium dissociation constant (Kd) turned out to be 0.117 nM.

B6: 1B20 Fab variant W101A (Fab, V domains shown)
VH: B1 VH with W101A
VL: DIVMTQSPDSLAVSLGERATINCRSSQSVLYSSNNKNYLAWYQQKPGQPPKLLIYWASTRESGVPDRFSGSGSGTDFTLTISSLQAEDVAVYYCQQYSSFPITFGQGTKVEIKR
notes: as for B3
As for B6, in [9], binding was put at a Kd of 1.37 nM.

B7: 1B20 Fab variant W101Y (Fab, V domains shown)
VH: B1 VH with W101Y
VL: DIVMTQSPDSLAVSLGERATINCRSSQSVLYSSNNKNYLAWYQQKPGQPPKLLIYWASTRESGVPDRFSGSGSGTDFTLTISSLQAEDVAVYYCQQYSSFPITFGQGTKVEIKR
notes: as for B3
Turning to B7, the Kd in experiment [9] came out at 0.78 nM.

B8: 1B20 Fab variant W101F (Fab, V domains shown)
VH: B1 VH with W101F
VL: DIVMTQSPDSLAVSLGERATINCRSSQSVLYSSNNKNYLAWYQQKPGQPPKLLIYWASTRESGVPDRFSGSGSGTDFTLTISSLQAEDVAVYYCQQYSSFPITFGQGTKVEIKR
notes: as for B3
On to B8, for which binding in [9] was characterised by a dissociation constant (Kd) of 1.12 nM.
